The text below walks through data of a protein production outcome set (Wang et al. 2014).

A short description of this data set: label from the status in PepcDB records.
Turning to “MATPKLEAYRKKRDFSKTPEPVGNLTAGGNRFVVHKHHATADHYDLRLEVDGVLKSWAVPKGPSLNPADKRLAVETEDHPLDYIDFEGVIPEGEYGGGPMIVWDKGVWAPMGDVDDDLRKGAFKFRLAGEKLNGGWMLARLKRRPGEEDQRNWLLFKERDPAADTSIDILAARPESVKSGRRIEELVEKPKAPPKPVKLNPGALAGAVKAAQPERIEPQLATQTILPPEAEKDSKKPERWLHEIKFDGYRTMAHVADGKVRLVTRGGLDWTKRYGDLPEVFRRLPCRDVIIDGEIVVLDETGVSRFALLQDALSTGAGNSLVFYAFDLLHLNGWNLFDVPLEKRKALLKQLLAGQVSSRSAIQFSDHVLGEGRALYDRASEMGLEGIVSKRISAPYRSGRSKTWTKTKALKAEDFVIVGYTVSEAAEGIASLALGEWADGELEYRGKVGTGFDAQMLKELLARLEPLRAGAAKLEGAPREIIWVRPLLRAHIHYGNRTTDNVLRHAVFKGLRDVELSTPVSMSRKRLISDADLAGISITNPTRRLFGKSGPTKLDLAVYYAMIGDFMLPHILGRPVSLVRCPTGRTQDCFFQRHPFTGMPPSVATFQATNSEGEAKTYLSVEDARGYLALAQFGVVEFHNWGTTRKLLGKPDRVVFDLDPGEGIAWREVVEAAIHIKAELEALALVPFVKTSGGRGVHVVVPVVPKLDWKKFHQATSALATRLAATAPATFTTTMGKDNRIRRIFIDFHRNARSHTWAAPYSLRARTNLPASTPLSWADLETIDAPADLNYSSLPGLLATSGDPWADIDDFARDLPIL”, the protein production result is given as “failed”. As to “MSENEPAQMIEGRYRIVRNIAEGGMATVYEAIDERLGRTVAIKVMHTQLAKGPHREQFVERFRREANSAASIANPHIVQVYDTGEFNGLDFLVMEYVHGVNLRHEMNAQGTFSVRETLRVVAETLDGLASAHRAGVVHRDIKPENILINDRGHVQITDFGLAKAASQATLSSTGMLLGTAAYLAPEMIENNQATAQGDLYSVGIMAWEMLTGKVPFDSDNPVTLVFKHVHEDVPSVATVCQGIDPSVAAFIAHLTARQVDVRPTDGAAAAEELSQLAAKLPLEAWQYRLHAEPIGGDHTDATAAALVGNIAEQAPLTGVPAGAATFEPSVPAFLADDVASNTADTGGAADVNPPAPPVAPTTALDSSTPADASAPHKTQIMAQSGSETQVLPQAGDAFTRAPALSDEPDVASNGTGPKKQRSKNRFIVLVIVLVLAAIGGTAGWWWFAGPGSYWSVPKPDDVTCDANAGTECSLTGADWATYESTLKAFGIPYKTHEEYSDDVAEGKIISSSVNKTKAVVNSHISKRANQELTVVVSKGVRMATIPKDILDANSANGKNPLNALKKAGFDNVKHDESKDEYSMDTPQGVALTISPDPGTTAKHNDEVTITLSKGPMPVTMPDIVGKTQYEMQAALGELKLTANVTEQYDDKVEAGQVISASQEAGAQLKWGDSVDVVISKGPEMATIPSGLVGKQESAVTKTLESLGFKVKADKVLGGLFGTVRTVKSGDTDLSNGGKTRLRDANGNPTVITLTIV”, the protein production entry is on record as “failed”. “MIITQGPQFQGKASKRLHVMAKPIGAVCNIDCSYCYYLSKEDLLEYKKGCSPQMDDETLETYIRQYIEGQNTPEIIFSWQGGEPTLLGLDYFKKIVEFQKKYQPEGILISNDLQTNGTLLTDKWCEFLAENNFLVGLSIDGPEMLHNAYRTNKAGRGTFKQVMNAVELLHKHNVKFATLTCVNNLTSRNPLEVYRFLRDV”: the protein production result is recorded as “failed”. As to “MTNERVMQLIREAYEKNLTTLDLSENQLTQLPSEITELKNLTTLNLSGNQLTQLPSEIGELKSLTSFDLSVNQLTQLPPEIGELKNLTILNVYRNQLIQLLPEITELKNLTTLDLSLNKLTQLPPLEHHHHHH”, the protein production entry was “failed”. Take “MERLKLYFSYFKNKILKKYESKKAQSVIDTEEIKEEIWEADFSKKEKARFIEETGDGYQSLFEENLDGKHSYSLELKRKHLYAWALNPLFRYKDFVLDAEIELPVFTDNFFPEENTSAGYCAAGFVFRHISDKAFYSLLISDKGWIRLEAVVNSTPMPILGWTKPLTDIDSSKFKIKLICAGTSITVLVNNTWLGKFESDIVQAAGKIGFAGQNWETYPKVKFYLNEFKIISQPLLVENTDSAANNPDAISPEAYINLASTYYAMGQYVAAIYQIKQAWKLREPGIQDHILAGRIYFAQHLNEEAEKEFLHALDIEHDNYEIMAELAGLYYQSGNMKKLGDILKDIPNDEIEKSVLLCSLKGHFLNSQGKHEKSAAFYAKAFELKPDQGLLKYNEANELNLAGKTAEAVEAYTEAGKLFLASEEYNEMANVINALERIAPEDERTWALSGKFYYAVDNKWEAKLNFKKLCDAKTSDSTIWYLYGLLIHDEKPEEAVKFFKKACKLGPEHGLYHFRLAEALYLIGEDCSVPLSEAEALEPNNGWIFNLKALCAIDEDAFFDAQIEIEKARKMLPDEIVILENYVEIMRLQGRLKECAPLFDIEAGTADLAAERNRAEAFHIYANALFFDEQYDEADIWYQKALKLKPVDPVLLTDKAENSIKIGYLNDADGLLVKAMDIEPTERIYRLISLLAVKKGDHARAEVSLRQAIEEFGESEELLFDLTNLYIQTNRKEKAKETIKLLTNCEDQERLKELKALLKK”: the protein production result is “failed”. Take “HALAERDRPLPTHLVLSGRMPPHTGYSPLLGAMDDNQLWQHVCSESLLPLPTDASCSFARHALGKLKADLALNAQLTYRFIRPLPVPLYVLNGQDDPLLELHRLDEWQRYTSTSFHSEYVPGGHFFFNINFQLLYLPLLTALD”: the protein production entry is “failed”.

With “MRNTNLQAMIESAILAAFALVIDILPLSIKLPTGGSISFAMIPIFIIAYRWGFKSAFLGGLVWGLLQIVVGDAYILTPVQAFIEYFIAFAFIGFAGLFYRPIQKALLTSNENNLEQSSLGSRKDKPSSKQNEGKKVLAYIILATFIGSFARYFCHFIAGIIFWGQYAPKGQSAVLYSLIVNGSTMIGSYILCTVLLIFLFLTSPRLFKSISAYQLNANKKGA”, the protein production result is given as “failed”.

For the sequence “MENKKMNLLLFSGDYDKALASLIIANAAREMEIEVTIFCAFWGLLLLRDPEKASQEDKSLYEQAFSSLTPREAEELPLSKMNLGGIGKKMLLEMMKEEKAPKLSDLLSGARKKEVKFYACQLSVEIMGFKKEELFPEVQIMDVKEYLKNALESDLQLFI”, the protein production entry is listed as “not failed”. On to “MKTFTLQDAGDIRRLLTERLMQSVNAGTVPWRQNIIRHGVPIHALSGQLFTGINVLLLWQSALQNGLTSNRWLTGDDLRSLGGSIIPGQRPTTIVRYTPSLSLFRVINIEQCDGLPTELRAGWPWPPAPVPGMERIEKWQRASQVPVLYRGQRPAVYLSESDRIELPGSDQGNLDSLTALLVSATGHPTRLGRSCFTGSDVPERDEYLQESLVADVGRAFLAALAGIPLAGTPMWNGELGSDPWILFKSASEAGKAVDWLEKQRLTTLPFDDVQHWQRLAAHLLTTHYGQQLDDTTLVCDSVVHQHLRYNISPGNAVNALARIYDWPRSDVAPALFILELNSVADAFASFSLNPGSLVVHRVASDIDDNKVVLEAPELETLFLPPPFAKSVDEVAANDEEEGGDPDDPGNLAALPWVRNQGRSNPHRATFIRQFQEIAPYENRWTVFSDFIHMSAAALHNRCHFVQEIEDDYLRRIKRYKKADQNRFPLLFNTLVEGMEFSASDFLGSVFMELELGDQRRGQYFTPYSVGYMMAKLQLADGLPALTSGERDFITVSDPACGAGGLIVAMAQAMLEAGFNPQKQMMAVCVDIDPVAAMMAYVQLALCGIPAMVIVGNSLSMEFRQTWRTPFWMMFGWERKWAREQERKAQQKVA”, for which the protein production result is listed as “failed”. Take “RRRNQKRANAERERLRQIIDTIPQQVFVKDADGTYTLANKAAAAAHGVAVERLEGATHDEFALSDEQRDFKSDDAAVIENGESVHIEEDGLVEADGSSHTVQTDIVPIEIASGERRALVVATDIT”: the protein production entry was “failed”.

As for “ISMIGERTNSNGSKAFREAMLSGDWEKCVDIAKQQTRDGAHMLDLCVDYVGRDGTADMATLAALLATSSTLPIMIDSTEPEVIRTGLEHLGGRSIVNSVNFEDGDGPESRYQRIMKLVKQHGAAVVALTIDEEGQARTAEHKVRIAKRLIDDITGSYGLDIKDIVVDCLTFPISTGQEETRRDGIETIEAIRELKKLYPEIHTTLGLSNISFGLNPAARQVLNSVFLNECIEAGLDSAIAHSSKILPMNRIDDRQREVALDMVYDRRTEDYDPLQEFMQL”, the protein production entry was “failed”. On to “ADLGRKITSALRSLSNATIINEEVLNAMLKEVCTALLEADVNIKLVKQLRENVKSAIDLEEMASGLNKRKMIQHAVFKELVKVKVY”, for which the protein production result is listed as “not failed”. In the case of “MVLQKLPLIGLLLLLTIVASPANADGPVCPPSNKLSRASFPEGFLFGTATAAYQVEGAINETCRGPALWDIYCRRYPERCNNDNGDVAVDFFHRYKEDIQLMKNLNTDAFRMSIAWPRIFPHGRKEKGVSQAGVQFYHDLIDELIKNGITPFVTVFHWDTPQDLEDEYGGFLSERIVKDFREYADFVFQEYGGKVKHWITFNEPWVFSHAGYDVGKKAPGRCSSYVNAKCQDGRSGYEAYLVTHNLLISHAEAVEAYRKCEKCKGGKIGIAHSPAWFEAHDLADSQDGASIDRALDFILGWHLDTTTFGDYPQIMKDIVGHRLPKFTTEQKAKLKASTDFVGLNYYTSVFSNHLEKPDPSKPRWMQDSLITWESKNAQNYAIGSKPLTAALNVYSRGFRSLLKYIKDKYANPEIMIMENGYGEELGASDSVAVGTADHNRKYYLQRHLLSMQEAVCIDKVNVTGYFVWSLLDNFEWQDGYKNRFGLYYVDFKNNLTRYEKESGKYYKDFLSQGVRPSALKKDEL”, the protein production entry is given as “failed”. Turning to “LAAWHLSSADYIADTLRLQGMTARGQVLDFGGGIGTHALSAAALPQVDHVWFVDLNPHNQAFVEQRAAALGLSDKLSVHRDLESTGEVRFDTVVCLDVLEHLPDPSAQLQAFHQRMASDATALLNWYFFKGHDGEYPFHFDDPQ”, the protein production result is given as “failed”. The value for “MRYAAVLVEVGGTHRCLPLDSDGDLNIVASFDRRGKHIYTGNAKGKILVLDAETFEVVASFRIIVGTSSATAVKSIEFARRGDAFLINTSDRVIRVYDSKEIIILGKDGEPEPIQKLQDLVNKTTWKKCCFSGDGEYICAGSARQHALYIWEKSIGNLVKILHGTKGELHKQKRIRSFLERLAKDVPRIKNHLTLPNRFLFSSYRYYIRTI” was “failed”; that for “MNVFAFSISGGGSERSYKETEKTSAMTTTHSTKLQPSQAILFKMREDAPPLNLTEEMPPPFPTKANYLIHPVRLEHHHHHH” was “failed”; that for “MKALHFGAGNIGRGFIGKLLADAGIQLTFADVNQVVLDALNARHSYQVHVVGETEQVDTVSGVNAVSSIGDDVVDLIAQVDLVTTAVGPVVLERIAPAIAKGLVKRKEQGNESPLNIIACENMVRGTTQLKGHVMNALPEDAKAWVEEHVGFVDSAVDRIVPPSASATNDPLEVTVETFSEWIVDKTQFKGALPNIPGMELTDNLMAFVERKLFTLNTGHAITAYLGKLAGHQTIRDAILDEKIRAVVKGAMEESGAVLIKRYGFDADKHAAYIQKILGRFENPYLKDDVERVGRQPLRKLSAGDRLIKPLLGTLEYSLPHKNLIQGIAGAMHFRSEDDPQAQELAALIADKGPQAALAQISGLDANSEVVSEAVTAYKAMQ” was “not failed”.

Turning to “LQQFLDALASSPEKIEFETTMAVIEDNYDFTPAAFTNGNTQNDANENNGSCKIFAFGLLNALDKEATLACFGRFYREDVLLHPENNDHQNIRNFMVTGWEGIQFETSALTAK”, the protein production result is “not failed”. Take “MRIKLIIVEGKTDESFFKVLLEKLYGFREAKKLTPEFPIGKWGFRIGEHPLVLEKDNIALVIIHAEGKQRIPKVLKSVLDSVKLGLLNVEEVYVVRDVDEGNDVFEWVLSFLREREVRVDNGAIVTEGVKIYPYGMGNLTLNEPFVKEKKELELSLAYLAKLDGILEKYRGSMRALSQDKGDKLTPKDVMHILSIANDYTGDCLSGLYEKYIGIMIHRNRELLIRFLSEVNLLPLLERMVG”: the protein production result was “not failed”. The value for “GHMEERVLGMPAVESNMFPLGKQAPPFALTNVIDGNVVRLEDVKSDAATVIMFICNHCPFVKHVQHELVRLANDYMPKGVSFVAINSNDAEQYPEDSPENMKKVAEELGYPFPYLYDETQEVAKAYDAACTPDFYIFDRDLKCVYRGQLDDSRPNNGIPVTGESIRAALDALLEGRPVPEKQKPSIGCSIKWKPSA” was “not failed”.
